System: Flt3-expressing 3T3 cells
Test: Flt3 3T3 assay during purification of Pv-FRIL
Assay type: cell-based
Conditions: 80,000-fold purification; IL1-α or PHA-LCM as co-factor
Description: To create factor-dependence for receptor-transfected 3T3 cells, growth conditions were compromised to permit only ligands to rescue cells from death. To do this, 3T3 cell lines were assayed in 96 well plates (Becton Dickinson Labware, Lincoln Park, N.J.) containing 3,000 cells in 100 μL of serum-free medium consisting of 10% AIMV (Life Technologies) and 90% DMEM. In each experiment, samples were serially diluted two-fold across rows starting at a 1:10 dilution. Viable cells were quantitated after 3-5 days by XTT (2,3-bis[Methoxy-4-nitro-5sulfophenyl]-2H-tetrazolium-5 carboxanilide inner salt) (Sigma, St. Louis, Mo.) (Roehm et al., supra). Relative activity (units/ml) and specific activity (units/mg) are defined as the reciprocal dilution at which half-maximal stimulation of cells was detected.
Each batch of PHA-LCM was generated in serum-free medium with cells from individual normal donors. To start purification, the PHA-LCM with Flt3 3T3 activity was pooled in 30 liter lots with approximately 10^7 Flt3 3T3 units. Twenty-five liters of PHA-LCM was diafiltered into 50 mM Tris-HCl, pH 7.6, 50 mM NaCl and then concentrated to 2-2.5 liters by tangential flow ultrafiltration on a 10 kDa molecular weight cutoff membrane (Pellicon, Millipore, Bedford, Mass.). A Blue-sepharose FF (Pharmacia Biotech) column (10 cm×15 cm) was equilibrated with 50 mM Tris-HCl, pH 7.4,50 mM NaCl. […]

B1: Pv-FRIL: FRIL family mannose-binding lectin from Phaseolus vulgaris (red kidney bean), SEQ ID NO: 6 (protein)
chain: AQSLSFNFTKFDLDQKDLIFQGDATSTNNVLQLTKLDSGGNPVGASVGRVLFSAPFHLWENSMAVSSFETNLTIQISTPHPYYAADGFAFFLAPHDTVIPPNSWGKFLGLYSNVFRNSPTSENQSFGDVNTDSRVVAVEFDTFPNANIDPNYRHIGIDVNSIKSKETARWEWQNGKTATARISYNSASKKSTVTTFYPGMEVVALSHDVDLHAELPEWVRVGLSASTGEEKQKNTIISWSFTSSLKNNEVKEPKEDMYIANVVRSYTWINDVLSYISNKMYDALNNNHKYVRCSTCMLFMKKK
B1 was tested. Which “specific activity of purified fraction” value did it give?
The value was 244,500 units/mg.
